Reference: patent US20260327578A1, “TRANSGLUTAMINASES AND USES THEREOF” (CURIE CO. INC., priority 2023, published 2026)

Experiments:
N,N-dimethylcasein [1] = experiment: Rate of product formation over 60 minutes (protein functionalization assay); assay type: biochemical; set-up: key: −: a reduction in activity; +: an improvement between 1.2 and 2-fold; ++: an improvement between 2 and 5-fold; +++: an improvement greater than 5-fold; conditions: improvement relative to wild-type Tgase (SEQ ID NO: 2); initial rate over 60 min
Summary of the method: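 S. mobaraensis Tgase variants from cell-free reactions were diluted 10-fold in phosphate buffer pH 7.4, with enzyme loading set so enzyme was rate-limiting. Monodansylcadaverine coupling to N,N-dimethylcasein was followed by fluorescence (ex 332/em 500 nm), read every 60 s over 60 min. Initial rate was scored as fold improvement over wild-type.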

C. albicans (ATCC 10231) = experiment: MIC determination against C. albicans; assay type: cell-based
Method: (§1) E. coli (ATCC 8739) and C. albicans (ATCC 10231) were acquired from the American Type Culture Collection (ATCC) (Manassas, VA) and maintained as −80° C. frozen glycerol stocks.
For MIC determination of yeast cultures, C. albicans (ATCC 10231) was grown overnight (24 hours) in Sabouraud Dextrose broth at 30° C. The following day, the cell density of the saturated cultures was calculated using OD600 and cultures were diluted to 104 to 10^6 CFU/mL in sterile Sabouraud Dextrose broth media to generate the inoculum, and 100 μL of the inoculum was combined with 100 μL of serially diluted Tgase variant at a range of 0.0001-0.05 weight percent. The cultures were grown overnight at 30° C. and growth curves were measured by OD600 on a BioTek® Synergy Plate Reader. All test conditions were performed in triplicate. MIC was determined to be […] (0.005% w/v) against C. albicans for the enzyme described in SEQ ID NO: 4 using OD600.

E. coli (ATCC 8739) = experiment: MIC determination against E. coli; assay type: cell-based
Method: as §1
The following day, the cell density of the saturated cultures was calculated using OD600 and cultures were diluted to 104 to 10^6 CFU/mL in sterile Mueller Hinton broth to generate the inoculum, and 100 μL of the inoculum was combined with 100 μL of serially diluted Tgase variant A3 (SEQ ID NO: 4) at a range of 0.0001-0.05 weight percent. Growth curves were measured by OD600 on a BioTek® Synergy Plate Reader. All test conditions were performed in triplicate. MIC was determined to be […] (0.005% w/v) against E. coli for the enzyme described in SEQ ID NO: 4 using OD600.

N,N-dimethylcasein [2] = experiment: Productivity: total product formed after 24 hours (protein functionalization assay); assay type: biochemical; conditions: improvement relative to wild-type Tgase (SEQ ID NO: 2); total product after 24 h
Summary of the method: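 S. mobaraensis transglutaminase variants from cell-free expression were diluted 10-fold in phosphate buffer pH 7.4, with enzyme loading set so that enzyme was rate-limiting. Crosslinking of monodansylcadaverine to N,N-dimethylcasein was followed by fluorescence (ex 332/em 500 nm). Productivity is the total product after 24 h, scored as fold change versus wild type.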

[3] = OD600, printed in brackets after the ppm value

B1: A3: Tgase variant S2P Q50S Q74A K91H Q124L K151R K152R N282M G283A relative to SEQ ID NO: 2 (protein, UniProt P81453 77-407, looked up, variant S2P Q50S Q74A K91H Q124L K151R K152R N282M G283A)
Protein-glutamine …: DPDDRVTPPAEPLDRMPDPYRPSYGRAETVVNNYIRKWQQVYSHRDGRKSQMTEEQREWLSYGCVGVTWVNSGAYPTNRLAFASFDEDRFHNELKNGRPRSGETRAEFEGRVAKESFDEEKGFLRAREVASVMNRALENAHDESAYLDNLRRELANGNDALRNEDARSPFYSALRNTPSFKERNGGNHDPSRMKAVIYSKHFWSGQDRSSSADKRKYGDPDAFRPAPGTGLVDMSRDRNIPRSPTSPGEGFVNFDYGWFGAQTEADADKTVWTHGNHYHAPMASLGAMHVYESKFRNWSEGYSDFDRGAYVITFIPKSWNTAPDKVKQGWP
In the case of B1, the Rate (N,N-dimethylcasein [1]) is reported as “−”, the MIC (C. albicans (ATCC 10231); OD600) is reported as 100 ppm and the MIC (C. albicans (ATCC 10231); [3]) is reported as 0.005 % w/v. The MIC (E. coli (ATCC 8739); OD600) was 200 ppm, the MIC (E. coli (ATCC 8739); [3]) was 0.005 % w/v and the Productivity (N,N-dimethylcasein [2]) was “+ (an improvement between 1.2 and 2-fold)”.
